Measurements from article PMC9726900.
Each block holds one substance with its values, some of them ahead of it.

Legend:
[1] = target: 46w60 nucleosome (recombinant human histone octamer on Widom 601 DNA with 46-bp and 60-bp flanks), Cy5-labelled (human) (UniProt P0C0S8); assay: MST; CHD4 titrated (1:2 serial dilution) into 25 nM Cy5-labelled 46w60 nucleosome; 50 mM HEPES pH 7.5, 50 mM NaCl, 3 mM MgCl2 dilution buffer, 100 ng/µL BSA, 0.5% glycerol; 10 min on ice; Monolith NT.115, 80% LED, 20% MST power; fit to a 1:1 binding isotherm
[2] = test system: CHD4 C1bC2a (SANT-SLIDE) (Homo sapiens); assay: MST; settings: 120 mM NaCl, 1 mM TCEP, no Mg2+; CHD4: 50 mM HEPES pH 7.5, NaCl up to 50 mM and MgCl2 up to 3 mM (from dilution buffer), 100 ng/uL BSA, 0.5% glycerol, 25 nM Cy5 substrate; C1bC2a: 20 mM HEPES …
CHD4 WT (Homo sapiens) = assay: MST; settings: 3 mM Mg2+ in dilution buffer; CHD4: 50 mM HEPES pH 7.5, NaCl up to 50 mM and MgCl2 up to 3 mM (from dilution buffer), 100 ng/uL BSA, 0.5% glycerol, 25 nM Cy5 substrate; C1bC2a: 20 mM HEPES …
[3] = test system: CHD4(1-1380) (Homo sapiens); assay: MST; settings: CHD4: 50 mM HEPES pH 7.5, NaCl up to 50 mM and MgCl2 up to 3 mM (from dilution buffer), 100 ng/uL BSA, 0.5% glycerol, 25 nM Cy5 substrate; C1bC2a: 20 mM HEPES …
[4] = test system: CHD4(1-1810) (Homo sapiens); assay: MST; settings: CHD4: 50 mM HEPES pH 7.5, NaCl up to 50 mM and MgCl2 up to 3 mM (from dilution buffer), 100 ng/uL BSA, 0.5% glycerol, 25 nM Cy5 substrate; C1bC2a: 20 mM HEPES …
[5] = test system: CHD4-IDR2-scram (Homo sapiens); assay: MST; settings: 3 mM Mg2+ in dilution buffer; CHD4: 50 mM HEPES pH 7.5, NaCl up to 50 mM and MgCl2 up to 3 mM (from dilution buffer), 100 ng/uL BSA, 0.5% glycerol, 25 nM Cy5 substrate; C1bC2a: 20 mM HEPES …
[6] = test system: CHD4-IDR2-del- (Homo sapiens); assay: MST; settings: 3 mM Mg2+ in dilution buffer; CHD4: 50 mM HEPES pH 7.5, NaCl up to 50 mM and MgCl2 up to 3 mM (from dilution buffer), 100 ng/uL BSA, 0.5% glycerol, 25 nM Cy5 substrate; C1bC2a: 20 mM HEPES …
[7] = test system: CHD4(1-1230) (Homo sapiens); assay: MST; settings: CHD4: 50 mM HEPES pH 7.5, NaCl up to 50 mM and MgCl2 up to 3 mM (from dilution buffer), 100 ng/uL BSA, 0.5% glycerol, 25 nM Cy5 substrate; C1bC2a: 20 mM HEPES …

Sequence of CHD4(1–1230) (Q14839 1-1230): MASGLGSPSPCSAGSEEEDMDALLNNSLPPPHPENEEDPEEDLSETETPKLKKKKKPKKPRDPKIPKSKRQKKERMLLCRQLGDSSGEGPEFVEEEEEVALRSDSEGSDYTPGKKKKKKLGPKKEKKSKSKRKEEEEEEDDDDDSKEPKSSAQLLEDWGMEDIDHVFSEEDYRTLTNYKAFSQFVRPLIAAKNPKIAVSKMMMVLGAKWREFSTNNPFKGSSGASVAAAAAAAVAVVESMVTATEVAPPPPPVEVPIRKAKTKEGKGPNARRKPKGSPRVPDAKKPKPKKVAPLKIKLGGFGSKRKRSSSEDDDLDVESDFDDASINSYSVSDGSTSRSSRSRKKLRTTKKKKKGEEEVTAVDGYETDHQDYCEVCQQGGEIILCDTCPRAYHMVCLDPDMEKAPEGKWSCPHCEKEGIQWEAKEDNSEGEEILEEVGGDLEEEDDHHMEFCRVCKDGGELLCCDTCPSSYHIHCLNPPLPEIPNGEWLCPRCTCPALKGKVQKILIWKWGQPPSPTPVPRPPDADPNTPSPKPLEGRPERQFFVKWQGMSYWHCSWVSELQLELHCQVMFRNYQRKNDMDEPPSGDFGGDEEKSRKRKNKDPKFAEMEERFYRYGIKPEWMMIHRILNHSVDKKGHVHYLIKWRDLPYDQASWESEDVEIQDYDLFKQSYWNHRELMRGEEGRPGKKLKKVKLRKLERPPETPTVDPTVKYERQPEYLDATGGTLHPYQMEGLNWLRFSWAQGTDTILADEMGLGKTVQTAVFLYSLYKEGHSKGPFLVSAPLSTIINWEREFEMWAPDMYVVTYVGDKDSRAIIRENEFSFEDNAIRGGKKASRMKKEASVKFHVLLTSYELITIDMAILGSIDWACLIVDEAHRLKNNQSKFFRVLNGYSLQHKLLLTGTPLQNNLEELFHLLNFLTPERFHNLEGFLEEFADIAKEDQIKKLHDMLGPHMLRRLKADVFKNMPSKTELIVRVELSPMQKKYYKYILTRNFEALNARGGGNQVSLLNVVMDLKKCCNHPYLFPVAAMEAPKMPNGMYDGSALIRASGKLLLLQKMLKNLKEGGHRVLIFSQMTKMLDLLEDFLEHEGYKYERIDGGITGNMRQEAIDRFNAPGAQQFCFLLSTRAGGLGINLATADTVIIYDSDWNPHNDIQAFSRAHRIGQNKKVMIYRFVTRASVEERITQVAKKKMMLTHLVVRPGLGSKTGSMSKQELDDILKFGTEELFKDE
Sequence of CHD4-IDR2-del– (Q14839 whole entry, one chain of several): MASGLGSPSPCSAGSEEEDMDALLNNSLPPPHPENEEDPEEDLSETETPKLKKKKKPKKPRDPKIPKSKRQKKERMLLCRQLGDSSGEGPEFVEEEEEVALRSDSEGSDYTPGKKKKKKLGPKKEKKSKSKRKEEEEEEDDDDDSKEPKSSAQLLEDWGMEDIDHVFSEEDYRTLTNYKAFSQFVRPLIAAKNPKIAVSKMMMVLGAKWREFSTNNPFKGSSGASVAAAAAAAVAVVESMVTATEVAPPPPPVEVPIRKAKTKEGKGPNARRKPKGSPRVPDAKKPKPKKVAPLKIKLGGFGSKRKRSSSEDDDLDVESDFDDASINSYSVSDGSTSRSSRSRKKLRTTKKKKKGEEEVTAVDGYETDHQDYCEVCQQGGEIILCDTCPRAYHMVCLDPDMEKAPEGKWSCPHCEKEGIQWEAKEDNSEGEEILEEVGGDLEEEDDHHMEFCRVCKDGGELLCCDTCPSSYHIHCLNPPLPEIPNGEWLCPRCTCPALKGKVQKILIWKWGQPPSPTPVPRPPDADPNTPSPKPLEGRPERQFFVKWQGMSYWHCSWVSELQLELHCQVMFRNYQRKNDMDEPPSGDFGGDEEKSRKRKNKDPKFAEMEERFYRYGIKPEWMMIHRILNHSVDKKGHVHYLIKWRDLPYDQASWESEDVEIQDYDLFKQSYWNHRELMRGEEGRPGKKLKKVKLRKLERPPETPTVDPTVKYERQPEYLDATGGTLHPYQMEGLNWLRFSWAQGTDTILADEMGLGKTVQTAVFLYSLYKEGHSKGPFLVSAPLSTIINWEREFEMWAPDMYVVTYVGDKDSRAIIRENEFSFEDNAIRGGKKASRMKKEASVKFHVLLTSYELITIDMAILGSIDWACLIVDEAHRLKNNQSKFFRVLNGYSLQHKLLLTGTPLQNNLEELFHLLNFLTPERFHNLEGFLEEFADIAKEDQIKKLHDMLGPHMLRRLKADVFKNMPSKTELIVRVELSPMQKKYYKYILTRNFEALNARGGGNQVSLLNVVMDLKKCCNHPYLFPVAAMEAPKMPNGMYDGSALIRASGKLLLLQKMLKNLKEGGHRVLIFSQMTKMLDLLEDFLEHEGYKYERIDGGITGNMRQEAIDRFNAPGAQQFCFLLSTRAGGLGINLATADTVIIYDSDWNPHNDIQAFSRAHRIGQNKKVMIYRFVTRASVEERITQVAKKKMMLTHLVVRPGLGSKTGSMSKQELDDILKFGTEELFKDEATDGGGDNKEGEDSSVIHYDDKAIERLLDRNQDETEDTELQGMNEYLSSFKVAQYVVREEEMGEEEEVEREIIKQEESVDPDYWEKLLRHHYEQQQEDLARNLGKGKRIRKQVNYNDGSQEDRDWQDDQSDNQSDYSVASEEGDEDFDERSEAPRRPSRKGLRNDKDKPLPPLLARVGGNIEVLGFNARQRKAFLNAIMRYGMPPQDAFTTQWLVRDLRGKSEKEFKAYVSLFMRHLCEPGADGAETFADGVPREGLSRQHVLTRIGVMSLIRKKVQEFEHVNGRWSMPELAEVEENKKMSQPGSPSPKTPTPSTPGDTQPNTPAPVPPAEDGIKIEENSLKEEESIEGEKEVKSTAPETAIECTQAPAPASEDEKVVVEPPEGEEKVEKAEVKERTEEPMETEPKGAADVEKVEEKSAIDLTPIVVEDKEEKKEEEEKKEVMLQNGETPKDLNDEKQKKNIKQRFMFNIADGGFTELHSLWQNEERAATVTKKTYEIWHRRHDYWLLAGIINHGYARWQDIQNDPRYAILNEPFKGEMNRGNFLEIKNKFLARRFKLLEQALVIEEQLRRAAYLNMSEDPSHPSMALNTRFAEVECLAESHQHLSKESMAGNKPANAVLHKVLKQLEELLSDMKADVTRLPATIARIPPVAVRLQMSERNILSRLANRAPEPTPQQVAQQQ
Sequence of CHD4-IDR2-del+ (Q14839 whole entry, one chain of several): as above
Sequence of WT CHD4 (human chromodomain helicase DNA-binding protein 4, full length) (Q14839 whole entry): as the sequence (Q14839 whole entry, one chain of several) above
Sequence of CHD4(1–1380) (Q14839 1-1380): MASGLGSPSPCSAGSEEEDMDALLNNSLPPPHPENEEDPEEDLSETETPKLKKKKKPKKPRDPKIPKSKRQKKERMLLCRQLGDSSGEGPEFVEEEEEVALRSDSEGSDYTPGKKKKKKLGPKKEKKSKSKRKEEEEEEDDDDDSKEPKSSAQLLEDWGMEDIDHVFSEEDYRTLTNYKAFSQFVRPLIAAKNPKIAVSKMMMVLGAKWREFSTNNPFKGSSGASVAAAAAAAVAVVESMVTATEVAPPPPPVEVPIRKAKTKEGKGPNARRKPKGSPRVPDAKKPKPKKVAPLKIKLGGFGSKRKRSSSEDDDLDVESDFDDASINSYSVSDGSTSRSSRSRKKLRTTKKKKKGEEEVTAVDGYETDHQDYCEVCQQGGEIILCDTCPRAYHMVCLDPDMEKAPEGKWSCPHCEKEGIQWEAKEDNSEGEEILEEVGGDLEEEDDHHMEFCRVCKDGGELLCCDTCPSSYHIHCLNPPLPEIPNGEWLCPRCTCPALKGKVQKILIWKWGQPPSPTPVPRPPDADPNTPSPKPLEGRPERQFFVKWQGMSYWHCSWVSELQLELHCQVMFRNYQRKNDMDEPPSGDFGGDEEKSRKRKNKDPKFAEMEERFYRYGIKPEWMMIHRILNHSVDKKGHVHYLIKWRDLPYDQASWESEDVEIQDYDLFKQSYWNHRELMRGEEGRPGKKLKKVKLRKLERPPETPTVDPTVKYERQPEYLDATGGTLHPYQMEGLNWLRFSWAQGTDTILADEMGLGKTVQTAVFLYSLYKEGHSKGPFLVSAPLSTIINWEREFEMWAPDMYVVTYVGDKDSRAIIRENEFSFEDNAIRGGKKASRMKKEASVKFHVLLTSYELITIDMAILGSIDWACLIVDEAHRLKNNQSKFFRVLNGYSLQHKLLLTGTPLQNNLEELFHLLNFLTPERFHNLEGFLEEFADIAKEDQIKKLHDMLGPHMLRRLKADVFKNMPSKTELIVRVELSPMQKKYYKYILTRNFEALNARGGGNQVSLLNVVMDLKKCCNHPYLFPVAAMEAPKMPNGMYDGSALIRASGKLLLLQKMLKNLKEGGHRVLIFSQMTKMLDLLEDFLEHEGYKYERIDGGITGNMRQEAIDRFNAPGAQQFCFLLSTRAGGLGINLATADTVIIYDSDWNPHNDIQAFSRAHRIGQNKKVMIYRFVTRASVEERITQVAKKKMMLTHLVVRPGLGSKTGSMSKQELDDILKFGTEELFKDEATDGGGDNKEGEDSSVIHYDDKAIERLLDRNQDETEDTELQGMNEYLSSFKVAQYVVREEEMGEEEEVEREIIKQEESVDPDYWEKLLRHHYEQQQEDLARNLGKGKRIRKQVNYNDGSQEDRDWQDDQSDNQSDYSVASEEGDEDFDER

Substance: WT CHD4 (human chromodomain helicase DNA-binding protein 4, full length) (from UniProt Q14839 1-1912) (enzyme)
Kd [1]: 0.045 µM

Substance: 46w60 DNA (naked)
Kd [2]: 10 µM | Kd (CHD4 WT (Homo sapiens)): 0.35 µM

Substance: CHD4(1–1380) (from UniProt Q14839 1-1380) (domain or fragment)
fold decrease in substrate binding against WT CHD4 [1]: 10 fold

Substance: CHD4(355–1912) (from UniProt Q14839 355-1912) (domain or fragment)
fold decrease in substrate binding affinity against WT CHD4 [1]: 3 fold

Substance: 46w60 nucleosome
Kd [3]: 0.43 µM | Kd [4]: 0.15 µM | Kd [5]: 0.1 µM | Kd [6]: 0.02 µM | Kd (CHD4 WT (Homo sapiens)): 0.045 µM | Kd [7]: 0.21 µM

Substance: CHD4(1–1810) (from UniProt Q14839 1-1810) (domain or fragment)
fold decrease in affinity against WT CHD4 [1]: 3 fold

Substance: CHD4-IDR2-del+ (from UniProt Q14839 1-226; Q14839 363-1912) (enzyme)
fold decrease in affinity against WT CHD4 [1]: 5 fold

Further lines, results first:

fold decrease in affinity against WT CHD4 [1]: 5 fold | fold increase in binding against CHD4(1–1380) [1]: 2 fold
Substance: CHD4(1–1230) (from UniProt Q14839 1-1230) (domain or fragment)

fold decrease in nucleosome binding against WT CHD4 [1]: 4 fold
Substance: CHD4(1–1540) (from UniProt Q14839 1-1540) (domain or fragment)

Kd [1]: 0.02 µM
Substance: CHD4-IDR2-del– (from UniProt Q14839 1-226; Q14839 363-1912) (enzyme)
